Results reported in US20220195054A1 (BERGEN TEKNOLOGIOVERF RING, published 2022).
Like-named read-outs stand apart in the source and are kept apart here.

Experiments:
[1] = biological target: T1, recombinant human Axl-Fc chimera (rhAxl-Fc; R&D Systems, Cat. no. 154-AL) (human, UniProt P30530 26-451); test: SPR (Biacore 3000, 25 C), rhAxl-Fc immobilised (190 RU), antibody as analyte, 1:1 Langmuir
T1 construct: Bought construct; also called rhAxi-Fc; Hu-Axl-Fc; Fc part of the bought chimera not given

[2] = biological target: T1, recombinant human Axl-Fc chimera …; test: SPR (Biacore 3000, 25 C), rhAxl-Fc immobilised (190 RU), antibody as analyte, koff/kon
Protocol: (§1) The precise kinetic analysis was performed using BIA evaluation software and curve fitting according to 1:1 Langmuir binding model.

[3] = biological target: T2, human Axl receptor on cells (MDA-MB-231, HeLa, LX2, Axl-positive cells) (human, UniProt P30530 26-894); test: flow cytometry titration on MDA-MB-231 cells, Kd of the fitted curve, the axis of the fitted curves is Conc. (nM) [table under the graph]
T2 construct: Endogenous receptor of human tumour cell lines
Protocol: (§2) The cells were collected by centrifugation at 200 g for 5 min. The antibody was diluted for total concentration in PBS containing 0.2% bovine serum albumin (BSA). Cell staining was performed using 200 μL of cell suspension comprising 200 000 cells for 30 min at room temperature. […] After two washing steps with PBS/0.2% BSA, the cells were resuspended in 200 μL PBS and kept on ice before analysis on Fortessa flow cytometer (BD Biosciences).

[4] = biological target: T2, human Axl receptor on cells …; test: flow cytometry on MDA-MB-231 cells, APC-conjugated anti-human IgG F(ab')2 detection
[5] = biological target: T1, recombinant human Axl-Fc chimera …; test: SPR two-injection competition on immobilised Axl-Fc; first injection
[6] = biological target: T2, human Axl receptor on cells …; test: cell-based or functional assay
[7] = biological target: T2, human Axl receptor on cells …; test: flow cytometry on MDA-MB-231 cells, APC-conjugated anti-human IgG F(ab')2 detection; remark: listed apart in the source
Protocol: as §2

[8] = biological target: T1, recombinant human Axl-Fc chimera …; test: SPR (Biacore 3000, 25 C), rhAxl-Fc immobilised; ln2/koff
Protocol: as §1

B1: chimeric monoclonal antibody 10G5 (mouse variable/human constant IgG1) (antibody, V domains shown)
VH: QVQLQQSGAELVRPGASVKLSCKASGYSFTDFYINWVRQRPGQGLEWIARIFPGGDNTYYNEKFKGKATLTAEESSSTAYIQLSSLTSEDSAVYFCARRGLYYAMDYWGQGISVTVSS
VL: DVLMTQTPLSLPVSLGDQASISCRSSQSLVHSNGIPYLHWYLQKPGQSPKLLIYRVSNRFSGVPDRFSGSGSGTDFTLKISRVEAEDLGVYFCSQGTHVPPTFGGGTKLEIK
notes: also called c10G5; C10G5
B1 gave a koff [1] of 0.000169 s⁻¹, a kon [1] of 1.64e+06 M⁻¹ s⁻¹ and a Kd [2] of 103 pM. For the same binder, the Kd [3] was 92.2 pM, the “EC50 (read off the curve)” value [4] was about 200 pM and the “1st Response” value [5] was about 170. The “EC50 (pM), killing of MDA-MB-231 cells by antibody coupled to Saporin (FabFc-ZAP), XTT/PMS viability after 72 hrs” value [6] was 5.71 pM, the “EC50 (read off the curve)” value [7] was about 100 pM and the “Half-life (t1/2)” value [8] was 1.14 h.
